# Test results as given in patent US20240092935A1 (BETH ISRAEL DEACONESS MEDICAL CENTER, published 2024).
# GalNAc = N-acetylgalactosamine
# T1: MUC5AC glycopeptide H2N-GTTPSPVPT*TSTTSAP-OH (chart ID 10)
# T1 peptide: H-GTTPSPVPT(GalNAc)TSTTSAP-OH
# T2: EA2 glycopeptide Ac-PTTDSTT*PAPTTK-NH2 (chart ID 11)
# T2 peptide: Ac-PTTDSTT(GalNAc)PAPTTK-NH2
# T3: EA2-R peptide Ac-PTTDSTTPAPTTK-NH2 (chart ID 12)
# T3 peptide: Ac-PTTDSTTPAPTTK-NH2
# T4: a-Dystroglycan glycopeptide Ac-PPT*T*T*T*KKP-HN2 (chart ID 13)
# T4 peptide: Ac-PPT(GalNAc)T(GalNAc)T(GalNAc)T(GalNAc)KKP-NH2
# T5: MUC1-1 glycopeptide H2N-TSAPDT*RDAP-NH2 (chart ID 14)
# T5 peptide: H-TSAPDT(GalNAc)RDAP-NH2
# T6: MUC1-1R peptide H2N-TSAPDTRDAP-NH2 (chart ID 15)
# T6 peptide: H-TSAPDTRDAP-NH2
# T7: Peptide-4 H2N-KTTT-CONH2 (chart ID 21)
# T7 peptide: H-KTTT-NH2
# T8: Peptide-5 H2N-KTTTG-CONH2 (chart ID 22)
# T8 peptide: H-KTTTG-NH2
# T9: a-Dystroglycan peptide Ac-PPTTTTKKP-NH2 (chart ID 9)
# T9 peptide: Ac-PPTTTTKKP-NH2
# T10: A-MUC2 glycopeptide Ac-PT*TTPLK-NH2 (chart ID 1)
# T10 peptide: Ac-PT(GalNAc)TTPLK-NH2
# T11: B-MUC2 glycopeptide Ac-PTT*TPLK-NH2 (chart ID 2)
# T11 peptide: Ac-PTT(GalNAc)TPLK-NH2
# T12: C-MUC2 glycopeptide Ac-PTTT*PLK-NH2 (chart ID 3)
# T12 peptide: Ac-PTTT(GalNAc)PLK-NH2
# T13: D-MUC2 glycopeptide Ac-PT*T*TPLK-NH2 (chart ID 4)
# T13 peptide: Ac-PT(GalNAc)T(GalNAc)TPLK-NH2
# T14: F-MUC2 glycopeptide Ac-PTT*T*PLK-NH2 (chart ID 6)
# T14 construct: also called double-Tn-MUC2; bar label T*T*
# T14 peptide: Ac-PTT(GalNAc)T(GalNAc)PLK-NH2
# B1: Remab6, recombinant human chimeric IgG1 anti-Tn antibody (antibody)
# heavy: not shown
# light: QIVLTQSPAIMSSSPGEKVALSCSASSSVSYVYWYQQKPGSSPKPWIYRTSNLASGVPARFSGSGSGTSYSLTISSMEAEDAATYYCQQYHSYPFTFGSGTKLEIKRTVAAPSVFIFPPSDEQLKSGTASVVCLLNNFYPREAKVQWKVDNALQSGNSQESVTEQDSKDSTYSLSSTLTLSKADYEKHKVYACEVTHQGLSSPVTKSFNRGEC
# notes: Mouse variable regions engineered from BaGs6 with human IgG1 and kappa constant regions; expressed in HEK293 Freestyle cells; also called Remab6-WT; hIgG1
# B2: ReBaGs6, recombinant murine IgM anti-Tn antibody (antibody)
# heavy: DTMLQQSDAELVKPGASVKMSCKASGYTFTDHAIHWVKQKPEQGLEWIGYVSPGNGDIKYNEKFKGKATLSADKSSSTAYMQLNSLTSEDSAVYFCKRSYGSFDYWGQGTTLTVSSESQSFPNVFPLVSCESPLSDKNLVAMGCLARDFLPSTISFTWNYQNNTEVIQGIRTFPTLRTGGKYLATSQVLLSPKSILEGSDEYLVCKIHYGGKNRDLHVPIPAVAEMNPNVNVFVPPRDGFSGPAPRKSKLICEATNFTPKPITVSWLKDGKLVESGFTTDPVTIENKGSTPQTYKVISTLTISEIDWLNLNVYTCRVDHRGLTFLKNVSSTCAASPSTDILTFTIPPSFADIFLSKSANLTCLVSNLATYETLNISWASQSGEPLETKIKIMESHPNGTFSAKGVASVCVEDWNNRKEFVCTVTHRDLPSPQKKFISKPNEVHKHPPAVYLLPPAREQLNLRESATVTCLVKGFSPADISVQWLQRGQLLPQEKYVTSAPMPEPGAPGFYFTHSILTVTEEEWNSGETYTCVVGHEALPHLVTERTVDKSTGKPTLYNVSLIMSDTGGTCY
# light: QIVLTQSPAIMSSSPGEKVALSCSASSSVSYVYWYQQKPGSSPKPWIYRTSNLASGVPARFSGSGSGTSYSLTISSMEAEDAATYYCQQYHSYPFTFGSGTKLEIKRADAAPTVSIFPPSSEQLTSGGASVVCFLNNFYPKDINVKWKIDGSERQNGVLNSWTDQDSKDSTYSMSSTLTLTKDEYERHNSYTCEATHKTSTSPIVKSFNRNEC
# notes: Mouse IgM (mu heavy chain, kappa light chain); also called ReGs6; mIgM
# B3: PNA (other)
# chain: AETVSFNFNSFSEGNPAINFQGDVTVLSNGNIQLTNLNKVNSVGRVLYAMPVRIWSSATGNVASFLTSFSFEMKDIKDYDPADGIIFFIAPEDTQIPAGSIGGGTLGVSDTKGAGHFVGVEFDTYSNSEYNDPPTDHVGIDVNSVDSVKTVPWNSVSGAVVKVTVIYDSSTKTLSVAVTNDNGDITTIAQVVDLKAKLPERVKFGFSASGSLGGRQIHLIRSWSFTSTLITTTRRSIDNNEKKIMNMASA
# modifications: Biotinylated at unspecified positions. The native lectin is a homotetramer; one subunit is given.
# notes: also called biotinylated PNA; Peanut agglutinin
# B4: BaGs6, murine IgM anti-Tn monoclonal antibody from mouse ascites (antibody, V domains shown)
# VH: DTMLQQSDAELVKPGASVKMSCKASGYTFTDHAIHWVKQKPEQGLEWIGYVSPGNGDIKYNEKFKGKATLSADKSSSTAYMQLNSLTSEDSAVYFCKRSYGSFDYWGQGTTLTVSS
# VL: QIVLTQSPAIMSSSPGEKVALSCSASSSVSYVYWYQQKPGSSPKPWIYRTSNLASGVPARFSGSGSGTSYSLTISSMEAEDAATYYCQQYHSYPFTFGSGTKLEIKR
# notes: Natural mouse IgM used as ascites fluid; also called Ca3638; anti-Tn ascites
# What was measured:
# [1] = biological target: T1, MUC5AC glycopeptide …; assay: Tn glycopeptide microarray, Alexa Fluor 488 goat anti-human IgG
# Procedure: (§1) The Tn glycopeptide microarray was prepared as previously described (25). The Consortium for Functional Glycomics (CFG) glycan microarray version 5.0 was used (www.functionalglycomics.org) (26). […] Slides were washed four times with TSM wash buffer 1 (20 mM Tris-HCl, pH 7.4, 150 mM NaCl, 2 mM CaCl₂), 2 mM MgCl2 and 0.05% Tween-20), and washed four times with TSM wash buffer 2 (20 mM Tris-HCl, pH 7.4, 150 mM NaCl, 2 mM CaCl2) and 2 mM MgCl2). Alexa Fluor® 488-labeled goat anti-human IgG or goat anti-mouse IgM secondary (diluted to 5 μg/ml) were used for detection. After washing as above, slides were washed once in water and dried before being read on a Genepix® 4300A microarray scanner (Molecular Devices). Images were analyzed with quantitation software (GenePix® Pro Microarray Analysis Software Ver. 7, Molecular Devices).
# [2] = biological target: T2, EA2 glycopeptide Ac-PTTDSTT*PAPTTK-NH2 …; assay: as above
# Procedure: as §1
# [3] = biological target: T3, EA2-R peptide Ac-PTTDSTTPAPTTK-NH2 …; assay: as above
# Procedure: as §1
# [4] = biological target: T4, a-Dystroglycan glycopeptide …; assay: as above
# Procedure: as §1
# [5] = biological target: T5, MUC1-1 glycopeptide H2N-TSAPDT*RDAP-NH2 …; assay: as above
# Procedure: as §1
# [6] = biological target: T6, MUC1-1R peptide H2N-TSAPDTRDAP-NH2 …; assay: as above
# Procedure: as §1
# [7] = biological target: T7, Peptide-4 H2N-KTTT-CONH2 (chart ID 21); assay: as above
# Procedure: as §1
# [8] = biological target: T8, Peptide-5 H2N-KTTTG-CONH2 (chart ID 22); assay: as above
# Procedure: as §1
# [9] = biological target: T9, a-Dystroglycan peptide Ac-PPTTTTKKP-NH2 …; assay: as above
# Procedure: as §1
# [10] = biological target: T15, Asialo-BSM (desialylated bovine submaxillary mucin) (bovine); assay: plate binding assay, Asialo-BSM coated on 96-well plate, serial dilution of antibody, fluorescent secondary antibody
# T15 construct: also called desialylated BSM; Asialo-BSM beads
# [11] = biological target: T4, a-Dystroglycan glycopeptide …; assay: Tn glycopeptide microarray, Alexa Fluor 488 goat anti-mouse IgM
# Procedure: as §1
# [12] = biological target: T5, MUC1-1 glycopeptide H2N-TSAPDT*RDAP-NH2 …; assay: as above
# Procedure: as §1
# [13] = biological target: T6, MUC1-1R peptide H2N-TSAPDTRDAP-NH2 …; assay: as above
# Procedure: as §1
# [14] = biological target: T7, Peptide-4 H2N-KTTT-CONH2 (chart ID 21); assay: as above
# Procedure: as §1
# [15] = biological target: T8, Peptide-5 H2N-KTTTG-CONH2 (chart ID 22); assay: as above
# Procedure: as §1
# [16] = biological target: T9, a-Dystroglycan peptide Ac-PPTTTTKKP-NH2 …; assay: as above
# Procedure: as §1
# [17] = biological target: T10, A-MUC2 glycopeptide Ac-PT*TTPLK-NH2 …; assay: Tn glycopeptide microarray probed with biotinylated PNA and Alexa488-streptavidin
# [18] = biological target: T11, B-MUC2 glycopeptide Ac-PTT*TPLK-NH2 …; assay: as above
# [19] = biological target: T12, C-MUC2 glycopeptide Ac-PTTT*PLK-NH2 …; assay: as above
# [20] = biological target: T13, D-MUC2 glycopeptide Ac-PT*T*TPLK-NH2 …; assay: as above
# [21] = biological target: T14, F-MUC2 glycopeptide Ac-PTT*T*PLK-NH2 …; assay: as above
# [22] = biological target: T1, MUC5AC glycopeptide …; assay: Tn glycopeptide microarray, Alexa Fluor 488 goat anti-mouse IgM
# Procedure: as §1
# [23] = biological target: T2, EA2 glycopeptide Ac-PTTDSTT*PAPTTK-NH2 …; assay: as above
# Procedure: as §1
# [24] = biological target: T3, EA2-R peptide Ac-PTTDSTTPAPTTK-NH2 …; assay: as above
# Procedure: as §1
binder,measurement,setting,value
B1,binding result,[1],no binding (tested: 5 µg/ml (text paragraph 261))
same,binding result,[2],no binding (tested: 5 µg/ml (text paragraph 261))
same,binding result,[3],no binding (tested: 5 µg/ml (text paragraph 261))
same,binding result,[4],no binding (tested: 5 µg/ml (text paragraph 261))
same,binding result,[5],no binding (tested: 5 µg/ml (text paragraph 261))
same,binding result,[6],no binding (tested: 5 µg/ml (text paragraph 261))
same,binding result,[7],no binding (tested: 5 µg/ml (text paragraph 261))
same,binding result,[8],no binding (tested: 5 µg/ml (text paragraph 261))
same,binding result,[9],no binding (tested: 5 µg/ml (text paragraph 261))
same,Kd,[10],829 nM
B2,binding result,[11],no binding (tested: 20 or 2 µg/ml (text paragraph 261))
same,binding result,[12],no binding (tested: 20 or 2 µg/ml (text paragraph 261))
same,binding result,[13],no binding (tested: 20 or 2 µg/ml (text paragraph 261))
same,binding result,[14],no binding (tested: 20 or 2 µg/ml (text paragraph 261))
same,binding result,[15],no binding (tested: 20 or 2 µg/ml (text paragraph 261))
same,binding result,[16],no binding (tested: 20 or 2 µg/ml (text paragraph 261))
same,Kd,[10],54.3 nM
B3,binding result,[17],no binding
same,binding result,[18],no binding
same,binding result,[19],no binding
same,binding result,[20],no binding
same,binding result,[21],no binding
B4,binding result,[22],no binding (tested: 1:200 dilution (text paragraph 261))
same,binding result,[23],no binding (tested: 1:200 dilution (text paragraph 261))
same,binding result,[24],no binding (tested: 1:200 dilution (text paragraph 261))
same,binding result,[11],no binding (tested: 1:200 dilution (text paragraph 261))
same,binding result,[12],no binding (tested: 1:200 dilution (text paragraph 261))
same,binding result,[13],no binding (tested: 1:200 dilution (text paragraph 261))
same,binding result,[14],no binding (tested: 1:200 dilution (text paragraph 261))
same,binding result,[15],no binding (tested: 1:200 dilution (text paragraph 261))
